Experimental findings from patent US20230399394A1 (SUNSHINE GUOJIAN PHARMACEUTICAL SHANGHAI, published 2023) are described below.

For experiment [1], the target named is T1, IL-33 mutant protein K46A (human, UniProt O95760 112-270).
T1 construct: Prokaryotic expression
T1 chain: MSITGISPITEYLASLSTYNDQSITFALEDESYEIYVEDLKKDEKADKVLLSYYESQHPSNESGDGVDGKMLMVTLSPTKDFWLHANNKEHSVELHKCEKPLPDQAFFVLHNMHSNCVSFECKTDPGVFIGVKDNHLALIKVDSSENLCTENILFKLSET
As to the kind of experiment: ELISA as Example 9; row K46A. The protocol:
(§1) SA protein was diluted to 2 μg/mL to coat ELISA plate at 100 μL/well overnight at 4° C. The plate was washed with PBST (PBS containing 0.05% Tween20) for 3 times, and blocked with 2% BSA prepared in PBS at 200 μL/well, at room temperature for 2 h. After the plate was washed twice with PBST, IL-33-his-biotin protein was diluted to 1 μg/mL with 1% BSA prepared in PBST, and was added to ELISA plate at 100 μL/well. The plate was incubated at room temperature for 1 h, and each monoclonal antibody was diluted with 1% BSA prepared in PBST in a 3-fold gradient. The highest concentration of antibody was 10 μg/mL, and the antibody was diluted for 12 gradients. Each diluted monoclonal antibody was added to ELISA wells with 100 μL/well, and the plate was incubated at room temperature for 1 h. Each sample was added to duplicate wells in parallel. The plate was washed with PBST for 3 times, and HRP-anti human IgG Fc secondary antibody prepared with PBST was diluted at an appropriate ratio, and was added to ELISA wells at 100 μL/well. […] Each reaction solution was shaken uniformly and OD450 nm was read on a microplate reader. The data was analyzed and EC₅₀ was calculated.
(§2) Subsequently, according to the experimental method of Example 9, the affinity of the above mutant proteins to 874F7-Hu1 was determined, and IL-33 proteins (WT-1, WT-2, WT-3, and WT-4) without any mutation were set as controls.
(In general: An ELISA detects its analyte on a solid surface through an enzyme-linked reagent.)

Experiment [2] deals with T2, IL-33 mutant protein E62A (human, UniProt O95760 112-270).
T2 construct: Prokaryotic expression
T2 chain: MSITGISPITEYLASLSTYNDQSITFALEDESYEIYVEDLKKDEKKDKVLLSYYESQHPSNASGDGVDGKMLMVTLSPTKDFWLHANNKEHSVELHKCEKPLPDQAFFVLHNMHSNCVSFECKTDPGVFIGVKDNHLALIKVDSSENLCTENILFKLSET
As to the kind of experiment: ELISA as Example 9; row E62A against WT-3. Here is the method:
as §1, §2

Experiment [3] has as its target T3, IL-33 mutant protein Q57A (human, UniProt O95760 112-270).
T3 construct: Prokaryotic expression
T3 chain: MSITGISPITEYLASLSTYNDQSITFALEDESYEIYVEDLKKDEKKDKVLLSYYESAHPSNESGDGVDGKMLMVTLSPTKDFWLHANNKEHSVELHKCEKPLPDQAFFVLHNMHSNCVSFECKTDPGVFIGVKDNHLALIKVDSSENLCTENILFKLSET
As to the kind of experiment: ELISA as Example 9; row Q57A against WT-1. The protocol: as §1, §2

Experiment [4] addresses T4, IL-33 mutant protein L50A (human, UniProt O95760 112-270).
T4 construct: Prokaryotic expression
T4 chain: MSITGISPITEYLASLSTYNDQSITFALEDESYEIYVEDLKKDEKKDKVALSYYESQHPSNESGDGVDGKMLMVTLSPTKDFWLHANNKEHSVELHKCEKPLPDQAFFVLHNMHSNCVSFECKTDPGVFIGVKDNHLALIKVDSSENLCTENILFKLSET
As to the kind of experiment: ELISA as Example 9; row L50A against WT-4. The protocol:
as §1, §2

For experiment [5], the target named is T5, IL-33 protein without any mutation (WT) (human, UniProt O95760 112-270).
T5 construct: Control of the alanine scan (four runs WT-1 to WT-4); also called WT-1; WT-2
T5 sequence: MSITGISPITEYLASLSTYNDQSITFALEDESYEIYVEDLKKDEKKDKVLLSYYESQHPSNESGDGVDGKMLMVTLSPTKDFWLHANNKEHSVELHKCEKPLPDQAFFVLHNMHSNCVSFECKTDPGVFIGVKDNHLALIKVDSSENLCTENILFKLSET
As to the kind of experiment: ELISA as Example 9; row WT-3, the reference itself. The protocol: as §1, §2

A further experiment has as its target T6, Pep14 (human, N-terminal biotin).
T6 construct: Synthetic 20-mer of human IL-33
T6 peptide: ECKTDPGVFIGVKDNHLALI
Nature of the experiment: ELISA, biotinylated peptide on streptavidin plate, antibody 10 µg/mL, well 2. Here is the method: (§3) To determine the binding activity of antibody to each polypeptide fragment, the ELISA plate was pre-coated by biotin-avidin (SA) which was diluted in coating solution (50 mM carbonate coating buffer, pH 9.6) to 2 μg/ml at 4° C. overnight. The plate was washed with PBST for 3 times, and then blocked with 2% BSA prepared in PBS at room temperature for 2 h with 200 μL/well. The plate was washed once with PBST, and 864F3 and 874F7 with final concentrations of 10 μg/mL were added at 100 μL/well, respectively, and the plate was incubated at room temperature for 1 h. The plate was washed with PBST for 3 times, and the goat anti-mouse IgG labeled by HRP was added and placed at 37° C. for 30 min. After washing the plate with PBST for 3 times, the plate was patted on the absorbent paper to remove residual droplets as far as possible. 100 μl TMB developing solution was added to each well, and the plate was placed at room temperature (20±5° C.) for 5 minutes away from light; 50 μl 2M H₂SO₄ terminating solution was added to each well to terminate the substrate reaction. OD values were read at 450 nm on the microplate reader to analyze the binding ability of the antibody to each polypeptide fragment. The experimental results are shown in […]

A further experiment addresses T7, Pep13 (human, N-terminal biotin).
T7 construct: Synthetic 20-mer of human IL-33
T7 peptide: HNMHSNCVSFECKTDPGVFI
Described as above. The protocol: as §3

A further experiment concerns the target T8, Pep15 (human, N-terminal biotin).
T8 construct: Synthetic 20-mer of human IL-33
T8 peptide: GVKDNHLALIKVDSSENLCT
The experiment is described as above. The protocol:
as §3

In another experiment the target is T9, Pep11 (human, N-terminal biotin).
T9 construct: Synthetic 20-mer of human IL-33
T9 peptide: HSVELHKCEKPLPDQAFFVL
The description is as above. Here is the method:
as §3

In a further experiment the target is T10, Pep4 (human, N-terminal biotin).
T10 construct: Synthetic 20-mer of human IL-33
T10 peptide: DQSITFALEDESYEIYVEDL
Described as above. The protocol: as §3

The target in a further experiment is T11, Pep9 (human, N-terminal biotin).
T11 construct: Synthetic 20-mer of human IL-33
T11 peptide: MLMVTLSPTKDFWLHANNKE
Described as above. Here is the method: as §3

B1: 874F7-Hu1 (antibody, human IgG4 S228P, kappa)
heavy: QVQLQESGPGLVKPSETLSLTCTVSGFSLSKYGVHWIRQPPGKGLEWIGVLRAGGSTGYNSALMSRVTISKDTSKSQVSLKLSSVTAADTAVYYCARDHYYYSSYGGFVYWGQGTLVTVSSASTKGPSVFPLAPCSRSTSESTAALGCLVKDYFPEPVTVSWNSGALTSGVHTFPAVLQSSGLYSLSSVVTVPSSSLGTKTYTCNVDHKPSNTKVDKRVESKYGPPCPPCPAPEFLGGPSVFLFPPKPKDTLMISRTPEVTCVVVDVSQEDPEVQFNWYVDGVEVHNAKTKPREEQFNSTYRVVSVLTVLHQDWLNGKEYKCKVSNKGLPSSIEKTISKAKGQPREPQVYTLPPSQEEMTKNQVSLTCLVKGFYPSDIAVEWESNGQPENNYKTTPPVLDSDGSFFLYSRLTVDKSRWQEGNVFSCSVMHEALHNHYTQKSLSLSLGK
light: DIQMTQSPSSVSASVGDRVTITCLASQTIGAWLAWYQQKPGKSPKLLIYAATRLADGVPSRFSGSGSGTDFTLTISSLQPEDFATYYCQQLDSSPYTFGQGTKVEIKRTVAAPSVFIFPPSDEQLKSGTASVVCLLNNFYPREAKVQWKVDNALQSGNSQESVTEQDSKDSTYSLSSTLTLSKADYEKHKVYACEVTHQGLSSPVTKSFNRGEC
notes: also called 874F7-Hul; humanized antibody 874F7-Hu1
What is called EC50 is the concentration that produces a half-maximal response. A low value points to a more potent agent. For B1, the EC50 in experiment [1] worked out at 0.23 nM. Besides, the Affinity decline ratio in [2] was determined as 0.8 fold; in experiment [3], 0.5 fold; in experiment [4], 28.5 fold; in [5], 1 fold.

B2: 874F7 (antibody, V domains shown)
VH: QVQLKESGPGLVAPSHSLSITCNVSGFSLSKYGVHWIRQIPGRGLDWLGVLRAGGSTGYNSALMSRLSISKDSSKSQVFLKMNDLRTDDTAVYFCVRDHYYYSSYGGFVYWGQGTLVTVSA
VL: DIQMTQSPASQSASLGESVTITCLASQTIGAWLAWYRQQPGKSPQLLIYAATRLADGVPSRFSGSGSGTEFSFKINNLQAEDFVSYYCQQLDSSPYTFGGGTRLEM
notes: Murine hybridoma antibody purified on Protein G; also called murine antibody 874F7
Take B2: the OD450 with Pep14 came to 0.053 OD450; in the experiment with Pep13, 0.053 OD450; with Pep15 it was 0.052 OD450; in the experiment with Pep11, 0.053 OD450; with Pep4, 0.048 OD450; in the experiment with Pep9, 0.061 OD450.
